Results published in US20250258178A1 (SHIONOGI, published 2025).

T1: human histidine-rich glycoprotein (HRG), purified from human plasma (human, UniProt P04196 19-525)
T1 construct: also called human purified HRG; human purified HRG protein
T1 sequence: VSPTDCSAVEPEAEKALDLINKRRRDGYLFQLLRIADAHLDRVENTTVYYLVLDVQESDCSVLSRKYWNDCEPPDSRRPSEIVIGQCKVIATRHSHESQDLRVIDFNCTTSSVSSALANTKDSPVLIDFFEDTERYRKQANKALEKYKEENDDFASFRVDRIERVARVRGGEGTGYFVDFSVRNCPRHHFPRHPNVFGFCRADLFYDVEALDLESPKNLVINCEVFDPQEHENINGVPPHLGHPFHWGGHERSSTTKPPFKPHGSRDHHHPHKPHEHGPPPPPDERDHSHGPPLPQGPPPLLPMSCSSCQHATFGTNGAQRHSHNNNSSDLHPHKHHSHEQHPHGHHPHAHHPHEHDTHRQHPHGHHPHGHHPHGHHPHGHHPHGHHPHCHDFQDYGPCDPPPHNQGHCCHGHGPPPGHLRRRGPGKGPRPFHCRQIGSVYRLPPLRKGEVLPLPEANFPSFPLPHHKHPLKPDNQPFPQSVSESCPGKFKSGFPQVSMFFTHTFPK

B1: anti-HRG monoclonal antibody 65-3A (antibody, V domains shown)
VH: QVILKESGPGILQPSQTLSLTCSFSGFSLSTSGVGVSWIRQPSGKGLEWLAHIYWDDDKHYNPSLKSRLTISKDTSRNQVFLRITSVDTADTATYYCALGTVGGPWFPYWGQGTLVTVSA
VL: DVQMNQSHKFMSTSVGDRVSITCKASQDVSTAVAWYQQKPGQSPKILIYWASIRHTGVPDRFTGSGSGTDYTLTISSVQAEDLTLYYCQQHYSTPWTFGGGTKLEIK
notes: Mouse hybridoma monoclonal
B2: anti-HRG monoclonal antibody 50-6C-2A (antibody, V domains shown)
VH: EVQLQESGPGLVKPSQSLSLTCTVTGYSITSDYAWNWIRQFPGNKLEWMGYISYSGSTNYNPSLKSRISITRDTSKNQFFLQLNSVTTEDTATYYCASASYRYAWFAYWGQGTLVTVST
VL: DIQMTQTTSSLSASLGDRVTISCRASQDISNYLNWYQQKPDGTVKLLIYYTSRLHSGVPSRFSGSGSGTDYSLTISNLEQEDIGTYFCQQGNTLPTFGGGTKLEIK
notes: Mouse hybridoma monoclonal
B3: anti-HRG monoclonal antibody 6-12A-10B-9G (antibody, V domains shown)
VH: EVQLQESGPGLVKPSQSLSLTCTVTGYSITSDYAWNWIRQFPGNKLEWMGYISYSGSTNYNPSLRSRISITRDTSKNQFFLQLISVTTEDTATYYCGSASYRYAWFAYWGQGTLVTVSA
VL: DIQVTQTTSSLSASLGDRVTISCRASQDISNYLNWYQQKPDGTVKLLIYYTSRLHSGVPSRFSGSGSGTDYSLTISNLEQEDIATYFCQQGNTLPTFGGGTKLEIK
notes: Mouse hybridoma monoclonal; biotin-labeled as detection antibody and for bead immobilisation
B4: anti-HRG monoclonal antibody 3-4E (antibody, V domains shown)
VH: QVQLQQSGAELMKPGASVKISCKATGYTFSTFWMEWVKQRPGHGLEWIGEILPGSGNANYNEKFKGKATFTADTSSNTAYMQLSSLTSEDSAVYYCAIHYYGYGFAYWGQGTLVTVSA
VL: DNVLTQSPAIMSASLGERVTMTCTASSSVSSSYLHWYQQKPGSSPKLWIYTTSNLASGVPVRFSGSGSGTSYSLTISSMEAEDAATYYCHQYHRSPWTFGGGTKLEIK
notes: Mouse (BALB/c) hybridoma monoclonal, Protein A purified; biotin-labeled when used as detection antibody

Experiments:
[1] = target: T1, human histidine-rich glycoprotein …; experiment: sandwich ELISA, HRG captured by solid phase 32-4C
Method: (§1) The capture antibody solution was dispensed at 25 μL per well into 384-well Maxisorp plates (NUNC), and the plates were incubated at room temperature for 3 hours. The plates were washed twice with 120 μL of washing solution per well (0.05% Tween 20-containing PBS). A blocking solution (1% BSA-containing PBS) was dispensed at 30 μL per well, and the plates were incubated at room temperature for 3 hours. The blocking solution was removed followed by dispensing the standard substance for evaluation at 20 μL per well (n=2), and the plates were incubated at room temperature for 3 hours. After washing the plates four times with the washing solution as described above, the solution of each detector antibody was dispensed at 10 μL per well, followed by dispensing a horseradish peroxidase-streptavidin solution (0.05 μg/mL) at 10 μL per well, and the plates were incubated at room temperature for 1 hour. After washing the plates four times with the washing solution as described above, a chromogenic substrate solution (TMB (3,3′,5,5′-tetramethylbenzidine)) was dispensed at 20 μL per well followed by incubating the plates at room temperature for 10 minutes, then a reaction stop solution 0.5 M H₂SO₄ was added at 20 μL/well, and the absorbance at 450 nm was measured.
(§2) The results regarding the evaluation of combinations chosen from 21 types of anti-HRG monoclonal antibodies are shown in Table 1. In Table 1, the absorbance at a wavelength of 450 nm of each combination was determined as follows: less than 1.0 OD: −, 1.0 OD or more and less than 2.0 OD: +, 2.0 OD or more and less than 3.0 OD: ++, and 3.0 OD or more: +++. The combinations of antibodies which could construct a sandwich ELISA system having enough level of absorbance change were 86 sets evaluated as ++ or +++ in Table 1.

[2] = target: T1, human histidine-rich glycoprotein …; experiment: sandwich ELISA, HRG captured by solid phase 19-1C
Method: as §1, §2

[3] = target: T1, human histidine-rich glycoprotein …; experiment: sandwich ELISA, HRG captured by solid phase 58-5C
Method: as §1, §2

[4] = target: T1, human histidine-rich glycoprotein …; experiment: sandwich ELISA, HRG captured by solid phase 31-1H
Method: as §1, §2

[5] = target: T1, human histidine-rich glycoprotein …; experiment: sandwich ELISA, HRG captured by solid phase 3-4E
Method: as §1, §2

[6] = target: T1, human histidine-rich glycoprotein …; experiment: sandwich ELISA, HRG captured by solid phase 81-2C
Method: as §1, §2

[7] = target: T1, human histidine-rich glycoprotein …; experiment: sandwich ELISA, HRG captured by solid phase 6-12A-10B-9G
Method: as §1, §2

[8] = target: T1, human histidine-rich glycoprotein …; experiment: sandwich ELISA, HRG captured by solid phase 75-2D
Method: as §1, §2

[9] = target: T1, human histidine-rich glycoprotein …; experiment: sandwich ELISA, HRG captured by solid phase 65-3A
Method: as §1, §2

[10] = target: T1, human histidine-rich glycoprotein …; experiment: sandwich ELISA, HRG captured by solid phase 67-8A-5F
Method: as §1, §2

[11] = target: T1, human histidine-rich glycoprotein …; experiment: sandwich ELISA, HRG captured by solid phase 14-6F
Method: as §1, §2

[12] = target: T1, human histidine-rich glycoprotein …; experiment: sandwich ELISA, HRG captured by solid phase 94-7A-3C-3D
Method: as §1, §2

[13] = target: T1, human histidine-rich glycoprotein …; experiment: sandwich ELISA, HRG captured by solid phase 40-10G
Method: as §1, §2

[14] = target: T1, human histidine-rich glycoprotein …; experiment: sandwich ELISA, HRG captured by solid phase 9-1F
Method: as §1, §2

[15] = target: T1, human histidine-rich glycoprotein …; experiment: sandwich ELISA, HRG captured by solid phase 35-3G-10C
Method: as §1, §2

[16] = target: T1, human histidine-rich glycoprotein …; experiment: sandwich ELISA, HRG captured by solid phase 50-6C-2A
Method: as §1, §2

[17] = target: T1, human histidine-rich glycoprotein …; experiment: sandwich ELISA, HRG captured by solid phase 93-4C
Method: as §1, §2

[18] = target: T1, human histidine-rich glycoprotein …; experiment: sandwich ELISA, HRG captured by solid phase 69-1A
Method: as §1, §2

[19] = target: T1, human histidine-rich glycoprotein …; experiment: sandwich ELISA, HRG captured by solid phase 42-10D
Method: as §1, §2

[20] = target: T1, human histidine-rich glycoprotein …; experiment: sandwich ELISA, HRG captured by solid phase 13-2G
Method: as §1, §2

[21] = target: T1, human histidine-rich glycoprotein …; experiment: sandwich ELISA, HRG captured by solid phase 88-2E
Method: as §1, §2

Binder	absorbance at 450 nm [1]	absorbance at 450 nm [2]	absorbance at 450 nm (OD450) [3]	absorbance at 450 nm [4]	absorbance at 450 nm [5]	absorbance at 450 nm [6]	absorbance at 450 nm (OD450) [7]	absorbance at 450 nm (OD450) [8]	absorbance at 450 nm [9]	absorbance at 450 nm (OD450) [10]	absorbance at 450 nm (OD450) [11]	absorbance at 450 nm [12]	absorbance at 450 nm (OD450) [13]	absorbance at 450 nm [14]	absorbance at 450 nm [15]	absorbance at 450 nm (OD450) [16]	absorbance at 450 nm (OD450) [17]	absorbance at 450 nm [18]	absorbance at 450 nm [19]	absorbance at 450 nm (OD450) [20]	further results
B1	< 1 OD	< 1 OD	2 to 3 od	< 1 OD	< 1 OD	< 1 OD	≥ 3 od	2 to 3 od	< 1 OD	2 to 3 od	1 to 2 od	< 1 OD	2 to 3 od	< 1 OD	< 1 OD	2 to 3 od	2 to 3 od	< 1 OD	< 1 OD	2 to 3 od	
B2	< 1 OD	< 1 OD	1 to 2 od	< 1 OD		< 1 OD		≥ 3 od			2 to 3 od		1 to 2 od	< 1 OD	< 1 OD		2 to 3 od	< 1 OD	< 1 OD		absorbance at 450 nm (OD450) [5]: ≥ 3 od; absorbance at 450 nm [7]: < 1 OD; absorbance at 450 nm (OD450) [9]: 1 to 2 od; absorbance at 450 nm [10]: < 1 OD; absorbance at 450 nm [21]: < 1 OD; absorbance at 450 nm (OD450) [12]: 1 to 2 od; absorbance at 450 nm [16]: < 1 OD; absorbance at 450 nm [20]: < 1 OD
B3	< 1 OD	< 1 OD	2 to 3 od	< 1 OD		< 1 OD		≥ 3 od			≥ 3 od		2 to 3 od	< 1 OD	< 1 OD		≥ 3 od	< 1 OD	< 1 OD		absorbance at 450 nm (OD450) [5]: ≥ 3 od; absorbance at 450 nm [7]: < 1 OD; absorbance at 450 nm (OD450) [9]: 2 to 3 od; absorbance at 450 nm [10]: < 1 OD; absorbance at 450 nm (OD450) [12]: 1 to 2 od; absorbance at 450 nm [16]: < 1 OD; absorbance at 450 nm [20]: < 1 OD
B4	< 1 OD	< 1 OD		< 1 OD	< 1 OD	< 1 OD	≥ 3 od		< 1 OD	2 to 3 od		< 1 OD			< 1 OD	≥ 3 od		< 1 OD		≥ 3 od	absorbance at 450 nm [21]: < 1 OD
